Source: the supplement of paper PMC10567573
± gives the standard deviation.

Assay: protein stability index of a GFP-peptide fusion (GPS, HEK-293T) (PSI 1-6); higher = more stable
[1] = treatment: DMSO, c terminus: a fixed tail appended
[2] = treatment: MLN4924 1 uM, 8 h, c terminus: a fixed tail appended
[3] = treatment: DMSO, c terminus: native
[4] = treatment: MLN4924 1 uM, 8 h, c terminus: native
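Also: 24-mer peptide tiles fused after GFP, lentivirally expressed, FACS-sorted into six equal bins by GFP/DsRed ratio, decoded by Illumina sequencing, PSI is the read-weighted mean bin number.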

| Sequence | protein stability index [1] | protein stability index [2] | protein stability index [3] | protein stability index [4] |
| --- | --- | --- | --- | --- |
| FRLLNLKNDSLRKRYDGLKYDVKK [TSN] | 2.85 ± 0.21 | 2.94 ± 0.32 |  |  |
| IRLTQYIDGQGRPRTSQSEETRVW [CAMK2B] | 3.13 ± 0.3 | 3.16 ± 0.14 |  |  |
| KLRGPEPAATEAYGSGDTPGGPCD [TBX6] | 5.35 ± 0.21 | 5.28 ± 0.31 |  |  |
| PLQFLGLFENSLCRLTHIPAYKVS [ZER1] | 2.02 ± 0.55 | 2.08 ± 0.5 |  |  |
| VEMDIYTALKKWMFLQLVPSWNGS [GMCL1] | 2.65 ± 0.092 | 2.66 ± 0.65 |  |  |
| PGPSPDVQLATLAQRVKEVLPHVP [AUP1] | 4.14 ± 0.32 | 4.14 ± 0.13 |  |  |
| LEKDTMDNWDEKKLEEVVNKKHGE [ZC3H15] | 5.54 ± 0.095 | 5.46 ± 0.19 |  |  |
| MLTVMTKYQANITETQRLGLAMAL [FANCE] | 2.52 ± 0.43 | 2.48 ± 0.25 |  |  |
| VVPVLVFPPDLVFRADQRSGPRQL [MOSPD3] | 2.27 ± 0.38 | 2.41 ± 0.25 |  |  |
| AINRDTAFPGASHESSGNPPLRVI [RHOBTB3] | 3.44 ± 0.049 | 3.47 ± 0.29 |  |  |
| GEAAGSSLIGHLQTLSPDMQGAYC [DUSP5] | 3.82 ± 0.34 | 3.87 ± 0.26 |  |  |
| STELQASQILQNKKHKNSQLDKNS [FAM98B] | 4.91 ± 0.38 | 5.06 ± 0.45 |  |  |
| DEVQIGPETVMTTLYTAKKYAVPA [BTBD1] | 3.67 ± 0.32 | 3.55 ± 0.41 |  |  |
| MIIVAISPKYKQDVEGAESQLDED [TRAF3IP2] | 2.52 ± 0.14 | 2.26 ± 0.25 |  |  |
| CTRDCMSFSVLNWDQVSRLHEVLT [TENT5C] | 2.13 ± 0.35 | 2.37 ± 0.23 |  |  |
| KCFHEIITIGYRVYHSYDLPWFRT [CDS1] | 2.88 ± 0.49 | 2.87 ± 0.56 |  |  |
| NLQSLKTPTLKVFMHENLYFTNRK [DCAF4] | 2.73 ± 0.26 | 2.65 ± 0.2 |  |  |
| DEKYSIEPSWECKFDHIEVRDGPF [NETO1] | 3.78 ± 0.35 | 3.9 ± 0.17 |  |  |
| QQDLERSLQDASRGDPAHAGLAEL [PBXIP1] | 5.32 ± 0.18 | 5.38 ± 0.16 |  |  |
| DYKLLKPSLAVNLADPYRSLKAPG [JUNB] | 3.41 ± 0.35 | 3.35 ± 0.14 |  |  |
| RHLAHSMLQRAIAYQHSGHLESKD [C10orf62] | 3.91 ± 0.24 | 3.92 ± 0.21 |  |  |
| KKRFTRRSHLIGHQRTHSEEETYK [ZNF449] | 4.12 ± 0.42 | 4.23 ± 0.46 |  |  |

| Sequence | protein stability index [1] | protein stability index [2] | protein stability index [3] | protein stability index [4] |
| --- | --- | --- | --- | --- |
| QEMVQRPQPHRNRAGLDLPTIDTG [TRAF3IP2] | 4.5 ± 0.26 | 4.59 ± 0.19 |  |  |
| EDQAEAWGCSCCPPETKHQALSGT [TSPAN10] | 4.71 ± 0.31 | 4.67 ± 0.18 |  |  |
| LGRFSLTPAEGDTEEDDGFVDILE [CDC25B] | 4.66 ± 0.74 | 5.06 ± 0.1 |  |  |
| FRLKTINLQSLINNEIPDCYTFSV [MCOLN1] | 2.76 ± 0.41 | 2.51 ± 0.39 |  |  |
| SEDNTSFDRKKKSISLMYGGSKRK [SLA] | 4.66 ± 0.26 | 4.91 ± 0.27 |  |  |
| FLPFLLCAVLLSAVQAQAGWLQHD [FADS1] | 2.73 ± 0.23 | 3.02 ± 0.66 |  |  |
| LRHFFLVEDLVDSLKLALLFYILT [RTN2] | 2.79 ± 0.79 | 2.45 ± 0.15 |  |  |
| PWVKELQDSKEMKQLLDSKIGFEI [ZNF449] | 2.9 ± 0.49 | 3.01 ± 0.65 |  |  |
| DKNVQVVELPIVDSLHPRPPYLPL [FUT8] | 3.2 ± 0.29 | 3.35 ± 0.28 |  |  |
| EIPKQVKVKKLKNLKTLDSKPGVY [DENND6A] | 3.4 ± 0.34 | 3.31 ± 0.52 |  |  |
| SLTSGACRLDYRRPENRSFYLALY [TCF25] | 2.41 ± 0.66 | 2.57 ± 0.88 |  |  |
| DETHPYTVTSVSCCHGNTLLAVRS [NEK8] | 2.47 ± 0.12 | 2.67 ± 0.076 |  |  |
| PGSFWGLCQVAQEALASAGASCCG [VENTX] | 2.41 ± 0.4 | 2.54 ± 0.22 |  |  |
| QALKFLPVPSAPVIDLAESLVADN [FSD1] | 3.48 ± 0.42 | 3.77 ± 0.28 |  |  |
| NEIFTQLYRTLFSVINNGHNQKVH [PDS5B] | 2.24 ± 0.47 | 2.47 ± 0.56 |  |  |
| DSQRVASVSLDRCIKIWDVTSQAT [WDR88] | 3.1 ± 0.22 | 3.12 ± 0.17 |  |  |
| SNQIPTEVRSKAEEVVSFVKKNVL [FUNDC2] | 3.59 ± 0.32 | 3.73 ± 0.18 |  |  |
| YAPPPTPAPATQMPSTPGFVGYNP [SMARCE1] | 3.01 ± 0.36 | 3.72 ± 0.32 |  |  |
| LVGLTVIGAFLNLVVLRFLTMNSE [KCNK9] | 3.42 ± 0.46 | 3.42 ± 0.25 |  |  |
| LTIMPYNSAHHCVVEVENFLFVLG [KLHL14] | 3.26 ± 0.64 | 3.02 ± 0.32 |  |  |
| AASSAKMGLVETKLAIIPGGGGTQ [AUH] | 3.83 ± 0.66 | 4.61 ± 0.51 |  |  |
| PSDAPHAHHPLHPHLMQEHMGTNV [HNF4A] | 4.45 ± 0.24 | 4.5 ± 0.1 |  |  |

| Sequence | protein stability index [1] | protein stability index [2] | protein stability index [3] | protein stability index [4] |
| --- | --- | --- | --- | --- |
| EDPSFWDCFCFTEEIPIRNGTKS [AASDHPPT] |  |  | 3.92 ± 0.12 | 4.22 ± 0.22 |
| KQKNAYIGTQGPLENTYRDFWLMV [PTPN9] | 2.44 ± 0.51 | 2.4 ± 0.36 |  |  |
| IQSRVQELHPESGEEAVTLVEDMQ [ZNF263] | 5.42 ± 0.18 | 5.44 ± 0.11 |  |  |
| LVDQVTGVSRGVGFIRFDKRIEAE [ELAVL3] | 2.97 ± 0.52 | 2.88 ± 0.62 |  |  |
| WHPKPYCQALPYGPGYWMCCHRSQ [FBXO34] | 2.32 ± 0.37 | 2.08 ± 0.14 |  |  |
| AIRRFQSMPVRLLGHSPVLRNITN [CDC25B] | 2.42 ± 0.35 | 2.24 ± 0.22 |  |  |
| AALLQLVRRLQALRLEREEYVLLK [ESRRA] | 2.19 ± 0.37 | 1.95 ± 0.18 |  |  |
| ICCWSFYGQGRKIAEVCCTSIVYA [KCTD10] | 2.98 ± 0.44 | 3.44 ± 0.54 |  |  |
| DVIQALDLSVPLMDVGETAMVTAD [FKBP8] | 3.41 ± 0.29 | 3.53 ± 0.19 |  |  |
| QAAPGALPVSSPEPPPALPPAADA [TRIM55] | 5.46 ± 0.15 | 5.37 ± 0.28 |  |  |
| PMPLSEGKSILLFGGAAAVAILAV [BCL2L13] | 2.77 ± 0.76 | 2.75 ± 0.69 |  |  |
| SKSKQPAGHRRPAGGIRESKESSK [C22orf31] | 5.35 ± 0.055 | 4.91 ± 0.53 |  |  |
| STDDFFFREDGAYEFNPDFLEEAH [N4BP2L1] | 4.99 ± 0.34 | 4.89 ± 0.17 |  |  |
| SRVMFLLVDKETDKRHVEQKIQFK [PDZK1] | 2.62 ± 0.32 | 2.88 ± 0.26 |  |  |
| DLLTFVQNLCKGLSQPTTNLVAGC [NEUROD6] | 3 ± 1 | 2.47 ± 0.33 |  |  |
| VRERDRLGNEYPKLHYPELYVLKG [CDC25A] | 2.62 ± 0.21 | 2.75 ± 0.12 |  |  |
| NDFGVFLCKLFPFLQKSSVGITVL [EDNRA] | 2.88 ± 0.52 | 3.26 ± 0.73 |  |  |
| EEWGQLDPTQRILYRDVMLETFGH [ZNF8] | 2.91 ± 0.32 | 3.22 ± 0.38 |  |  |
| QRLDYEREIQPTAILSLDQIKAIR [SPRY1] | 3.7 ± 0.061 | 3.87 ± 0.24 |  |  |
| ADVTLDPETAHPNLVLSEDRKSVK [TRIM39] | 5.38 ± 0.16 | 5.37 ± 0.43 |  |  |
| RLRPLTLSTPKPLVDFCNKPILLH [GMPPB] | 2.31 ± 0.14 | 2.46 ± 0.51 |  |  |
| LVVAVAAVSCVFLAFVIVLLAHRL [PCDHGA10] | 2.9 ± 0.83 | 2.83 ± 0.15 |  |  |

| Sequence | protein stability index [1] | protein stability index [2] | protein stability index [3] | protein stability index [4] |
| --- | --- | --- | --- | --- |
| SNWYITFQSDTDAQQAFILKRRS [LARP4] |  |  | 2.93 ± 0.3 | 2.21 ± 0.41 |
| MTSMSAELKMRAIQAEERLDMEKR [LRRC45] | 4.65 ± 0.19 | 4.9 ± 0.16 |  |  |
| PQAHQESTRGAARPAQAIGTQPRA [SPACA9] | 5.08 ± 0.23 | 5.35 ± 0.18 |  |  |
| LRQQLVVSKELRMYDEKAHEWKSL [KLHL13] | 2.93 ± 0.11 | 2.98 ± 0.15 |  |  |
| ELPSALESHEVPGTLSMGVPQIFK [ZNF24] | 4.07 ± 0.12 | 4.11 ± 0.13 |  |  |
| LLFMTSRVRFGQQKRYQDWFQRQY [INTS3] | 1.99 ± 0.58 | 2.24 ± 0.64 |  |  |
| YLIRVDGKGSIKELFPTGKQLEPL [VPS39] | 2.49 ± 0.23 | 2.21 ± 0.23 |  |  |
| TSKNSSTQDPSQPNSTKNQSLPKA [LCOR] | 5.31 ± 0.16 | 5.44 ± 0.12 |  |  |
| SVTKEGLELPEDEEEKKKMEESKA [HSP90AB1] | 5.68 ± 0.32 | 5.54 ± 0.39 |  |  |
| VFLASGAVSVMKKCRKLEDPQSSS [SLC19A2] | 2.81 ± 0.043 | 2.98 ± 0.15 |  |  |
| GGGFGGGSCQLGGGRGVSTCSTRF [KRT13] | 3.5 ± 0.17 | 3.59 ± 0.21 |  |  |
| PQGSRSPYIPPHAALCLEVTLKTA [FKBP8] | 2.26 ± 0.33 | 2.1 ± 0.22 |  |  |
| VGEVLKDIETACKLLNITADPMDW [SPDEF] | 2.71 ± 0.17 | 2.51 ± 0.27 |  |  |
| IADRAAHDESPGNNVVDISVPPTT [RAB11B] | 5.43 ± 0.24 | 5.21 ± 0.13 |  |  |
| SLLPAQVAACAQTVVSLAAAGQPT [CEBPD] | 3.24 ± 0.9 | 2.9 ± 0.37 |  |  |
| SKTFLCIGSSVMAASLVTMGIVNL [SLC2A12] | 3.19 ± 0.72 | 3.3 ± 0.54 |  |  |
| HTQVLPDVRLLPRRLPLAFRDATS [DYRK1B] | 2.84 ± 0.32 | 3.04 ± 0.22 |  |  |
| DVTCNEFFFDRNPGAFGTILTFLR [KCNG1] | 2.59 ± 0.33 | 2.65 ± 0.12 |  |  |
| IKPPPPLVLNSQQSDTLEQREEHE [RAD54B] | 5.23 ± 0.13 | 5.3 ± 0.34 |  |  |
| ALAEGYRYPELDTPKLDCFLSGME [TBX6] | 3.2 ± 0.48 | 3.5 ± 0.19 |  |  |
| APSNSTSLNSTFGSTNLTGLFFPP [NFE2L1] | 3.32 ± 0.26 | 3.08 ± 0.29 |  |  |
| FLFAKLFSHITSARKARKYEIPHF [PHTF1] | 3 ± 0.43 | 2.79 ± 0.62 |  |  |
